Laboratory results reported in patent US20260167717A1.

Molecular target: human carcinoembryonic antigen-related cell adhesion molecule 1 (CEACAM1) (human) (UniProt P13688)
Experiment: cell-based or functional assay

Chain of UniProt P13688 (P13688 35-526): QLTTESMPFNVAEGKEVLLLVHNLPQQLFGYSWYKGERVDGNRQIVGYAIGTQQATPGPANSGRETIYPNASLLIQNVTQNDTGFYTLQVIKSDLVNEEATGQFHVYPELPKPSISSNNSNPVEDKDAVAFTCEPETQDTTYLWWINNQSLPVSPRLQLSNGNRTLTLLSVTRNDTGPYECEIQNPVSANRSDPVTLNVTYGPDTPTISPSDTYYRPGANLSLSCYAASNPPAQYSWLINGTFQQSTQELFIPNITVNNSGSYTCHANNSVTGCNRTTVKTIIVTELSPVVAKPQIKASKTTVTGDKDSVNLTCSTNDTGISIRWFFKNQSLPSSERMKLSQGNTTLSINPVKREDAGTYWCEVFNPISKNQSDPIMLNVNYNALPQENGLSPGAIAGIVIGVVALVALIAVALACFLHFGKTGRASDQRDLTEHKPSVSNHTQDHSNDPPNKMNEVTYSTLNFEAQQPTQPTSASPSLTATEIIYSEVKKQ

% Inhibition of NET-induced migration (vs. isotype control), human NSCLC A549: 82.7%
% Inhibition of NET-induced migration (vs. isotype control), human PDAC AsPC-1: 49.1%
% Inhibition of NET-induced migration (vs. isotype control), human melanoma SKMEL-28: 69.5%
ADP-induced platelet aggregation, mean (ADP + CM24, 500 µg/ml, 30 min pretreat): 721 AUC
AUC of cell count, NET-induced migration of AsPC-1 cells (CM24 + NETs, 500 µg/ml): 30600 AUC
Mean AUC of cell count, NET-induced migration of A549 cells (CM24 + NETs, 500 µg/ml): 6580 AUC
Mean AUC of cell count, NET-induced migration of SKMEL-28 cells (CM24 + NETs, 500 µg/ml): 2950 AUC
Norm. AUC of cell count, NET-induced migration of A549 cells (CM24 + NETs, 500 µg/ml): 2170 AUC
Norm. AUC of cell count, NET-induced migration of AsPC-1 cells (CM24 + NETs, 500 µg/ml): 9410 AUC
Norm. AUC of cell count, NET-induced migration of SKMEL-28 cells (CM24 + NETs, 500 µg/ml): 1640 AUC
Percentage platelet aggregation at 30 min, fresh NETs 5 ng/µl, 500 µg/ml CM24: -5.3%
Percentage platelet aggregation at 30 min, fresh NETs 10 ng/µl, 500 µg/ml CM24: 11.5%
Platelet aggregation with fresh NETs 5 ng/µl, mean AUC (% aggregation versus time), 500 µg/ml CM24: 179 AUC
Platelet aggregation with fresh NETs 10 ng/µl, mean AUC (% aggregation versus time), 500 µg/ml CM24: 377 AUC
Reduction of NET-induced platelet aggregation vs. isotype control, 5 ng/µl fresh NETs: 70%
Reduction of NET-induced platelet aggregation vs. isotype control, 10 ng/µl fresh NETs: 53%
B1: CM24, humanized IgG4 anti-CEACAM1 monoclonal antibody (antibody, V domains shown)
VH: QVQLVQSGAEVKKPGASVKVSCKASGYAFTNNLIEWVRQAPGQGLEWIGVINPGSGDTNYNEKFKGRVTMTADKSISTAYMELSRLRSDDTAVYYCARGDYYGGFAVDYWGQGTTVTVSS
VL: DIQMTQSPSSLSASVGDRVTITCRTSQDIGNYLNWYQQKPGKAVKLLIYYTSRLHSGVPSRFSGSGSGTDYTLTISSLQPEDIATYFCQQGKSLPRTFGGGTKVEIKR
